Data set [1] addresses T1, MaMsvR (Methanosarcina acetivorans C2A) (UniProt Q8TQT2).
T1 sequence: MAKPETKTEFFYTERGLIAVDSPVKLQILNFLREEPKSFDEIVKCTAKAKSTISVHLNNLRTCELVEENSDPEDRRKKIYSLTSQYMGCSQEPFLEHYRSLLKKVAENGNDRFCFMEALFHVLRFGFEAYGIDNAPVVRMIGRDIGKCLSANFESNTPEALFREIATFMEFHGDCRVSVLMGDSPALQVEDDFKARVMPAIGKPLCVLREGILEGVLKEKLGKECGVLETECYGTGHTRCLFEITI
The data set can be described thus: EMSA. The conditions noted are these: EMSA at room temperature, 10 nM DNA and 200 nM MsvR (50 nM DNA and 1 uM protein for 50 bp oligos), with or without 5 mM DTT; binding buffer as in cited ref 9 …. On the technique in general: Mobility shift assays separate free from complexed probe on a gel.

Data set [2] deals with Methanosarcina acetivorans MsvR (methanogen specific V4R domain regulator), N-terminal Strep-tag (Methanosarcina acetivorans C2A). The data set can be described thus: SEC; Superdex 200 HiLoad 16/600; 20 mM Tris pH 8, 10 mM MgCl2, 200 mM KCl; 0.5 ml/min; non-reduced MaMsvR (0.65 mg loaded) and reduced MaMsvR (0.84 mg, 2 mM beta-ME in the elution buffer); calibrated with ferritin, conalbumin, carbonic anhydrase, ribonuclease A. In general terms: SEC sorts molecules by how far they enter the pores of the column.

Data set [3] shares this target. The data set can be described thus: SDS-PAGE without boiling, with immunoblot (Strep-tag antibody); 1 pmol protein in Laemmli sample buffer without or with 5 mM DTT, room temperature five minutes, not boiled; reduced and boiled sample as control; oligomers that withstand SDS, likely stabilised by disulfide bonds.
Data set [4] concerns T2, MaMsvR C232A C232A (Methanosarcina acetivorans C2A), ORF:da4acb06.
T2 sequence: T1 sequence with C232A
The data set can be described thus: EMSA. The conditions noted are these: EMSA at room temperature, 10 nM DNA and 200 nM MsvR (50 nM DNA and 1 uM protein for 50 bp oligos), with or without 5 mM DTT; binding buffer as in cited ref 9 ….

Data set [5] concerns T3, MaMsvR C240A C240A (Methanosarcina acetivorans C2A), ORF:da4acb06.
T3 sequence: T1 sequence with C240A
The data set can be described thus: EMSA. The conditions noted are these: EMSA at room temperature, 10 nM DNA and 200 nM MsvR (50 nM DNA and 1 uM protein for 50 bp oligos), with or without 5 mM DTT; binding buffer as in cited ref 9 ….

For data set [6], the system named is T4, MaMsvR C206A C206A (Methanosarcina acetivorans C2A), ORF:da4acb06.
T4 sequence: T1 sequence with C206A
The data set can be described thus: EMSA. As to conditions: EMSA at room temperature, 10 nM DNA and 200 nM MsvR (50 nM DNA and 1 uM protein for 50 bp oligos), with or without 5 mM DTT; binding buffer as in cited ref 9 ….

Data set [7] addresses T5, MaMsvR (Methanosarcina acetivorans C2A, UniProt Q8TQT2 1-246).
T5 sequence: T1 sequence
The data set can be described thus: EMSA; reducing; EMSA at room temperature, 10 nM DNA and 200 nM MsvR (50 nM DNA and 1 uM protein for 50 bp oligos), with or without 5 mM DTT; binding buffer as in cited ref 9; protein stock in 20 mM Tris pH 8, 10 mM MgCl2, 200 mM KCl, glycerol. As to conditions: protein: recombinant; tags: N-terminal Strep-tag; chain copies: 2; blunt.

The target in data set [8] is T5, MaMsvR. The data set can be described thus: EMSA; 5 mM DTT; 1 uM protein, 50 nM DNA; EMSA at room temperature, 10 nM DNA and 200 nM MsvR (50 nM DNA and 1 uM protein for 50 bp oligos), with or without 5 mM DTT; binding buffer as in cited ref 9; protein stock in 20 mM Tris pH 8, 10 mM MgCl2, 200 mM KCl, glycerol. The conditions noted are these: protein: recombinant; tags: N-terminal Strep-tag; chain copies: 2; blunt.

Changes are numbered by the printed parent chain.

On to “AAAGTAAGAAATTCTCTCTATATGTATGGGTTTATGATATCTCAGACCTGAAAATATGCGGATAAAATTCGGATAAAACAGGATTTCCTGATTTGGAGGGAAAGTAATGAAGTGTTACGAATGTGCCAGAGAGGGCAAAGATACGGATGCTGTGGGAATTTGTATCGTATGTGGAAGAGGAGTTTGCAAAGAACACCTTATCCATGAGGAAACACCTGCGTGGGAAGGCGACTATCCTAT (double strand) [Ma P3734]”, for which, in data set [1], the binding result is “no binding”.
The same measure, in the same setting: then “AGATCCCCCAGCGTCTCCAGAACTTGCGGAGTGAATCCCATTTTTTCTCCCATACTCTCCAGTATCTCTTCATGCTCTGTCATTTTTCCAGTCTCCTTACTCCGATAACTACCAGCTGTTGATATTTATATTGGTTATTTATATTTATTATTAATTAATATTTCTCAAATCTGTGTTCAGGCCTTTTACTTCCTCATTCCTGTCCAAAGGCCCTTTATTAAAGTCCGCATCCTTTGTTATGGGCTGCACA (double strand) [Ma P3736]”, with “no binding”.
For orientation: stoichiometry N means a count of units in the complex or per binding partner. Turning to “Methanosarcina acetivorans MsvR (methanogen specific V4R domain regulator), N-terminal Strep-tag (natural protein)”, the stoichiometry N in data set [2] and in data set [3] was 2 in each case.
Consider “GCAGATCTCGCAGCGGTACTTTTCTCCTTTTCTGGATACAGCCATAGCTACTTCACCTCCTTGCTTCTGAATTTAAATACCTCAAAACTTTCAAGCGGGCTTTCCCCTTCCCTGTAATCCCGAAATTACTCCGGGTTTCACCAACACTCATACATGTTAACCATTCTTTGTATATAATTGTAAGGACTTTTTAAAAAGTAACATAAATTTTTTCCTTCTATTCGGGTATGTCTTA (double strand) [Ma P4664]”, for which the binding entry in data set [1] is “no binding”.
For the molecule “TTACTTTGCCGTTTCCCCCCATTTTCTTTATATCTTTTTATATCTGTATTATTATATTTCAAACATGATTATTCGTAGTCACGCGAACGTTTTATATATTCAAAACGCAACTTATCTAAAGATATTATGGCAAAACCTGAGACCAAAACTGAATTCTTTTATACCGAAAGAGGGCTCATAGCCGTAGACAGCCCTGTTAAACTCCAGATCCTGAATTTTCTCAGGG (double strand) [Ma PmsvR (PCR)]”, the binding result in data set [4], in data set [1], in data set [5] and in data set [6] was “binds” throughout.
For the molecule “TCAGCTTTTCTTACGTTTGACCGTTATAGGAATAATTTCGGCCTTCAACTCTGCAATGGCTACACCCAGGGGGTCCAGCCGCCCGTCATCATCAACCAGGACAGGAGCCCCCATTGCTATCTGCAATGCTCTTGCACCTACAATTCGTGCACGCTCGAACCGGGTATACTTTT (double strand) [Ma rpoK]”, in data set [1], the binding entry is “no binding”.
On to “AGGCTTTACAAAGTAAATAAAGGGGAGAAAAAGGGTTAAAACCTGAATAAGAAGTAAAGAAAACTCCGATATAAGCAAAAGTATTTATAGAATCCGATTACAAAATCAGAGGTTAGAAGGAATTTATATTAACAAAAAGAAGCTTGGAGGATAATATGGCAAAAGTTATACCATTTGCACCAATCGAACGCCTGATAAGGACGGCTGGTGCCCACAGAGTAAGTGAGA (double strand) [Ma PhmaA]”, for which the binding result in data set [1] is on record as “no binding”.
For “CCGAAAACATTCCTGGCAATCTCCGGGATATTATATATTTCCATACTTTTCCTCCAACTCTCTTCTGAATCATTTACTCTCAAAATAAAATGTACCAAAATACGGTACACAGAAATCTTTAACTGTTCCCCACAAGCTCAAAACAGTATTATGGTGTAGCTATGTTAATTCGATATATTTATTATATTGATTAAATATTTTTGATAAGAACCTCTTTCTATTTTTACCTGTTCGTTCTGTCAGA (double strand) [Ma P3381]”, the binding result in data set [1] is “no binding”.

B1: Ma PmsvR 1 bp insertion between boxes (dsDNA)
DNA 1: TATTTCAAACATGATTATTCGTAGTTCACGCGAACGTTTTATATATTCAAA
DNA 2: TTTGAATATATAAAACGTTCGCGTGAACTACGAATAATCATGTTTGAAATA
With B1, in data set [7], the binding result was “binds”.

B2: Ma PmsvR flanks replaced (dsDNA)
DNA 1: GAGGGAATGAAATCCTCTTCGTAGTCACGCGAAAATGGACAAGTCTGATT
DNA 2: AATCAGACTTGTCCATTTTCGCGTGACTACGAAGAGGATTTCATTCCCTC
Regarding B2, the binding result in data set [7] is “no binding”.

B3: Ma PmsvR 1 bp deletion between boxes (dsDNA)
DNA 1: TATTTCAAACATGATTATTCGTAGCACGCGAACGTTTTATATATTCAAA
DNA 2: TTTGAATATATAAAACGTTCGCGTGCTACGAATAATCATGTTTGAAATA
B3: the binding result in data set [7] is recorded as “binds”.

B4: Ma PmsvR 50 bp box A mutant (dsDNA)
DNA 1: TATTTCAAACATGATTAGGGGTAGTCACGCGAACGTTTTATATATTCAAA
DNA 2: TTTGAATATATAAAACGTTCGCGTGACTACCCCTAATCATGTTTGAAATA
As to B4, the binding result in data set [8] is given as “no binding”.

B5: Ma PmsvR 50 bp box B mutant (dsDNA)
DNA 1: B4 DNA 1 with G18T, G19T, G20C, C30G, A32G, A33G
DNA 2: B4 DNA 2 with T18C, T19C, G21C, C31G, C32A, C33A
B5: the binding result in data set [8] is given as “no binding”.

Source of the values: article PMC3729527, “Redox-sensitive DNA binding by homodimeric Methanosarcina acetivorans MsvR is modulated by cysteine residues”.
